Laboratory results: patent US6541002B1, “Compositions and methods for providing a protein to a virion” (Thomas Jefferson University, priority 1998, dated 2003)

B1: WF-CAT (protein)
chain: MQPWWAFFGGGSSWWSFSMGPTRMEKKITGYTTVDISQWHRKEHFEAFQSVAQCTYNQTVQLDITAFLKTVKKNKHKFYPAFIHILARLMNAHPEFRMAMKDGELVIWDSVHPCYTVFHEQTETFSSLWSEYHDDFRQFLHIYSQDVACYGENLAYFPKGFIENMFFVSANPWVSFTSFDLNVANMDNFFAPVFTMGKYYTQGDKVLMPLAIQVHHAVCDGFHVGRMLNELQQYCDEWQGGA
B2: CAT: chloramphenicol acetyltransferase, a protein which does not normally comprise a Vpr-binding region (protein)
chain: MEKKITGYTTVDISQWHRKEHFEAFQSVAQCTYNQTVQLDITAFLKTVKKNKHKFYPAFIHILARLMNAHPEFRMAMKDGELVIWDSVHPCYTVFHEQTETFSSLWSEYHDDFRQFLHIYSQDVACYGENLAYFPKGFIENMFFVSANPWVSFTSFDLNVANMDNFFAPVFTMGKYYTQGDKVLMPLAIQVHHAVCDGFHVGRMLNELQQYCDEWQGGA
B3: dWF-IN: dWF peptide (SEQ ID NO: 1) fused at its carboxyl terminus to the amino terminus of HIV-1 IN (protein)
chain: MQPWWAFFGGGSSWWSFSMGPTRFLDGIDKAQEEHEKYHSNWRAMASDFNLPPVVAKEIVASCDKCQLKGEAMHGQVDCSPGIWQLDCTHLEGKVILVAVHVASGYIEAEVIPAETGQETAYFLLKLAGRWPVKTVHTDNGSNFTSTTVKAACWWAGIKQEFGIPYNPQSQGVIESMNKELKKIIGQVRDQAEHLKTAVQMAVFIHNFKRKGGIGGYSAGERIVDIIATDIQTKELQKQITKIQNFRVYYRDSRDPVWKGPAKLLWKGEGAVVIQDNSDIKVVPRRKAKIIRDYGKQMAGDDCVASRQDED
B4: dWF-PR-IN: dWF peptide (SEQ ID NO: 1) fused to the HIV-1 protease cleavage site (PR), which is fused to the amino terminus of IN (protein)
chain: MQPWWAFFGGGSSWWSFSMGPTRFLDGIDKAQEEHEKYHSNWRAMASDFNLPPVVAKEIVASCDKCQLKGEAMHGQVDCSPGIWQLDCTHLEGKVILVAVHVASGYIEAEVIPAETGQETAYFLLKLAGRWPVKTVHTDNGSNFTSTTVKAACWWAGIKQEFGIPYNPQSQGVIESMNKELKKIIGQVRDQAEHLKTAVQMAVFIHNFKRKGGIGGYSAGERIVDIIATDIQTKELQKQITKIQNFRVYYRDSRDPVWKGPAKLLWKGEGAVVIQDNSDIKVVPRRKAKIIRDYGKQMAGDDCVASRQDED
modifications: left off: small tags and cut ends

Assays:
HIV-1 virions [1] = assay: CAT activity assay of HIV-1 virions from co-transfected 293T cells (incorporation into virions); format: cell-based
Procedure: About 10^6 293T cells were grown in dishes having a diameter of 10 centimeters. These cells were co-transfected with 10 micrograms of either plasmid pNL4-3 or plasmid pNL4-3DVpr, and with 10 micrograms of a plasmid selected from the group consisting of plasmid pSLXCMV-CAT, plasmid pSLXCMV-VPR-CAT, and plasmid pSLXCMV-dWF-CAT. After transfection, the cells were incubated in medium for about seven hours. The medium was then removed and replaced with fresh medium, and cells and medium were collected about forty-eight hours after the medium was replaced. At that time, the medium comprised virus produced by the cells. The amount of virus present in the medium was determined by assessing the amount of HIV-1 p24 antigen in the medium, using a p24 ELISA kit obtained from Dupont (Wilmington, Del.).
CAT activity assays were performed as described (Refaeli et al., 1995, Proc. Natl. Acad. Sci. USA 92:3621-3625). Briefly, about 10^6 transfected cells were harvested by centrifugation. Pelleted cells were lysed in 0.9 milliliter of CAT lysis buffer (Promega Corp., Madison, Wis.) to yield a crude extract. 50 microliters of crude extract was used in CAT assays, and the results of the assays were normalized to account for variation in the protein content of the various crude extracts which were made.
Virions obtained from the medium in which transfected 293T cells were grown were concentrated by ultracentrifuging the medium in a Sorval A-621 rotor for about three hours at 20,000 rotations per minute. […] The amount of HIV-1 p24 antigen in each fraction was assessed, and fractions containing the greatest amounts of p24 were selected. […] CAT activity was assessed in lysed virion preparations.
CAT activity was assessed by thin-layer chromatographic separation of ^14C-chloramphenicol from its acetylated derivatives. Radioactivity was quantitated by standard liquid scintillation methods. […]

[2] = test system: IN-Defective HIV-1 Particles; assay: Syncytia formation assay with IN-defective HIV-1 particles complemented with IN chimeras; format: cell-based
Text: Using the calcium phosphate method for delivery of DNA into cells (Profection™, Promega Corp., Madison, Wis.), cells of human kidney carcinoma cell line 293T were transfected using HIV-1 proviral clones or co-transfected with these templates and SLX-CMV-VPR-IN, SLX-CMV-VPR-PR-IN, SLX-CMV-WF-IN, or SLX-CMV-dWF-PR-IN. Three days post-transfection, cell supernatants containing virus were harvested and clarified by low-speed centrifugation. HeLa-CD4-LTR/β-gal cells grown in either 60×14 or 35×10 millimeter plates were infected in duplicate at about 10-15% confluence using various viral stocks. Addition of supernatant to these MAGI reporter cells was adjusted, based upon HIV-1 p24 antigen content as quantitated by ELISA analysis (Kimpton et al., 1992, J. Virol. 66:2232-2239). MAGI cells contain an integrated cassette comprising the β-galactoside gene (β-gal) under the control of the HIV-1 long terminal repeat, and therefore can be stained for β-galactosidase activity (typically 48-72 hours post-infection).
Infected cells were fixed in a solution comprising 0.2% (v/v) glutaraldehyde and 1% (v/v) formaldehyde for 5 minutes at room temperature. Following fixation, cells were washed with phosphate buffered saline and stained using bromo-4-chloro-3-indolyl-β-D-galactopyranoside for 2 hours at 37° C. Representative fields of stained cells were photographed and numbers of deeply stained syncytia were determined either by visual counting through a microscope or from series of photographs taken in various fields of the stained cells using an Olympus CK2 microscope.
IN activity was detected using the syncytia formation assay described in this Example.

HIV-1 virions [3] = assay: Western blotting analyses of complemented HIV-1 virions; settings: integration-competent progeny virions
Procedure: 293T cells were grown in duplicate 100×20 millimeter culture dishes and transfected as described in the previous section. Virions released into the cell culture medium 2 ½ to 3 days post-transfection were centrifuged at 2000 rpm for 5 minutes at 4° C. to remove cellular debris. Afterward, virions were concentrated by adding 10 milliliters of cell medium atop 2 milliliters of buffered, isotonic 20% (w/v) sucrose, and ultracentrifuging the cushioned medium at 40,000 rpm for 2 hours. The bulk of the solution was removed by careful pipetting, and pelleted virions (visible as slight white pellets) were removed from the bottom of the ultracentrifuge tubes by resuspension in residual medium, typically resulting in a volume of 60 to 100 microliters of concentrated virus particles.
Particles were loaded into 10-20% (w/v) Tris-HCl or Tris-tricine precast gradient gels (Bio-Rad Laboratories, Richmond, Calif.) and electrophoresed until the bromphenyl blue marker migrated to at least the bottom of the gel. […] IN or IN chimera proteins were detected using a rabbit anti-IN polyclonal serum and visualized by chemiluminescence development (NEN Life Science Products) of bound HRP-conjugated anti-rabbit 1gG antisera used at 1/1500 dilution (Sigma Chemical Co., St. Louis, Mo.).

[4] = virions from 293T cells co-transfected with pNL4-3 (Vpr expressed)
[5] = HIV-1 provirus template D116N (Table 4)
[6] = HIV-1 provirus template D116N, average of duplicate experiments (Table 4)
[7] = HIV-1 provirus template IN (1-4) (Table 5)
[8] = HIV-1 provirus template IN (1-234) (Table 5)

Row | Molecule | CAT activity of virions (conversion of chloramphenicol to an acetylated product) (HIV-1 virions [1]; [4]) [% conversion] | CAT activity of virions (conversion of chloramphenicol to an acetylated product) (HIV-1 virions [1]; virions from 293T cells co-transfected with pNL4-3DVpr (Vpr not expressed)) [% conversion] | % of Wild Type (syncytia) [2, 5] [%] | Number of Syncytia Formed [2, 6] | Number of Syncytia Formed [2, 7] | Number of Syncytia Formed [2, 8] | amount of fusion protein incorporated into progeny virions (HIV-1 virions [3]) | % of Wild Type (syncytia) ([2]; HIV-1 provirus template IN (1-234) (Table 4)) [%] | Number of Syncytia Formed ([2]; HIV-1 provirus template IN (1-234), average of duplicate experiments (Table 4))
1 | B1 | 28 | 8 | – | – | – | – | – | – | –
2 | B2 | 8 | – | – | – | – | – | – | – | –
3 | B3 | – | – | 20.8 | 42 | 10 | 14 | equal to the amount of IN(D116N) protein incorporated into progeny virions | – | –
4 | B4 | – | – | 25.7 | 52 | 18 | 20 | – | 21.7 | 44
